Test results published in PMC3145889 (Oncogene, 2011).
Ends that are not written are not given here.

Assays:
[1] = molecular target: HMG20b (human (endogenous in 293T and HeLa)) (UniProt Q9P0W2); assay: co-IP
His-HMG20b = molecular target: T1, His-HMG20b (human, UniProt Q9P0W2 1-317); assay: pull-down
T1 sequence: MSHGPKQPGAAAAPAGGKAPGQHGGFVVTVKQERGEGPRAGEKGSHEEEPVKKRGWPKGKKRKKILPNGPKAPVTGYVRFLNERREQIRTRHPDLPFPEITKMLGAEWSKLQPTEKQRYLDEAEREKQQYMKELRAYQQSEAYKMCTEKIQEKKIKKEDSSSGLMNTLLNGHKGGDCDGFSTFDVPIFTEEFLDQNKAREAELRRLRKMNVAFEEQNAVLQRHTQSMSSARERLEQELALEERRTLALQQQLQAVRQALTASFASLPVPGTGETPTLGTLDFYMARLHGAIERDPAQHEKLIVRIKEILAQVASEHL

Molecule | fraction of the protein present in the complex [1] [%] | binding result (His-HMG20b)
BRCA2, P51587 1-3418 | < 5 | –
YSVIENSALAFYTSCSRKTSVSQTSLLEAKKWLRE (also: biotin label, position not given here) [Biotin-labelled BRC5 peptide (BRCA2 1661-1695)] | – | binds
